Data taken from US20150258192A1, “COMPOSITIONS AND METHODS FOR PREVENTING OR TREATING CHRONIC LUNG ALLOGRAFT DYSFUNCTION (CLAD) AND IDIOPATHIC PULMONARY FIBROSIS (IPF)” (priority 2014, published 2015).
No end group written: not given here.

What follows are sequences tested against T1, TAK1(h) (Homo sapiens, UniProt O43318) (assay: Kinase Profiling Assay). Conditions: peptide 100 μM.
T1 construct: purchased Millipore
T1 sequence (O43318 1-303 limits assumed): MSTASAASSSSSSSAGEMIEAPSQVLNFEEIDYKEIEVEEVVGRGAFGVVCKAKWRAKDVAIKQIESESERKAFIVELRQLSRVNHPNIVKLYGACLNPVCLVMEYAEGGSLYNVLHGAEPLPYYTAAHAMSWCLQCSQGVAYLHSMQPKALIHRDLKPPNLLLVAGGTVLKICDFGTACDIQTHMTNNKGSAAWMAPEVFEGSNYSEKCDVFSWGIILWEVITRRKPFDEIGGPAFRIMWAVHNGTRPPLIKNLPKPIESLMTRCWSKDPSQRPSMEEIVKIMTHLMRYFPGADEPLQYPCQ
Assay type: biochemical
In short: (§1)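 Activity remaining relative to an uninhibited control was determined by scintillation counting of labeled substrate bound to a negatively charged filter. Radiolabeled phosphate came from ATP; the substrate carried positive charge. Duplicate measurements, within a 266-kinase human panel.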

| Sequence | % activity [%] |
| --- | --- |
| FAKLAARLYRKALARQLGVAA [MMI-0300] | 122 |
| KAFAKLAARLYRKALARQLGVAA [MMI-0400] | 177 |
| YARAAARQARAKALNRQLGVA (Mammal) [MMI-0200] | 124 |

These sequences were tested against T2, DRAK1(h) (Homo sapiens, UniProt Q9UEE5) (assay: Kinase Profiling Assay). Conditions: peptide 100 μM.
T2 sequence (Q9UEE5 1-414): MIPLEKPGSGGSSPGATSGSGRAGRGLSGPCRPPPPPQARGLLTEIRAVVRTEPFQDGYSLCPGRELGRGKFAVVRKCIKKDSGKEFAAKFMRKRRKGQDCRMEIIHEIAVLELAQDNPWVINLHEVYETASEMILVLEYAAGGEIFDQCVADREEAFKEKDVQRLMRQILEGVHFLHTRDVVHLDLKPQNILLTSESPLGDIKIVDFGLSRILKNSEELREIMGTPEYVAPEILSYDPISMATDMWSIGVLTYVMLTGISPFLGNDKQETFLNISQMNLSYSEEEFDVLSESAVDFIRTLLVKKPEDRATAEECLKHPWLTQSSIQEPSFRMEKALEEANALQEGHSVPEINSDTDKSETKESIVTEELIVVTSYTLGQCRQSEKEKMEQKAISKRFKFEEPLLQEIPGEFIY
Assay type: biochemical
In short: as §1

| Sequence | % activity [%] |
| --- | --- |
| FAKLAARLYRKALARQLGVAA [MMI-0300] | 14 |
| HRRIKAWLKKIKALARQLGVAA (Mammal) [MMI-0500] | 8 |
| KAFAKLAARLYRKALARQLGVAA [MMI-0400] | 14 |
| YARAAARQARAKALARQLGVAA [MMI-0100] | 47 |
| YARAAARQARAKALNRQLGVA (Mammal) [MMI-0200] | 34 |

What follows are sequences tested against ZIPK(h) (Homo sapiens, UniProt O43293) (assay: Kinase Profiling Assay). Conditions: peptide 100 μM.
ZIPK(h), sequence (O43293 whole entry): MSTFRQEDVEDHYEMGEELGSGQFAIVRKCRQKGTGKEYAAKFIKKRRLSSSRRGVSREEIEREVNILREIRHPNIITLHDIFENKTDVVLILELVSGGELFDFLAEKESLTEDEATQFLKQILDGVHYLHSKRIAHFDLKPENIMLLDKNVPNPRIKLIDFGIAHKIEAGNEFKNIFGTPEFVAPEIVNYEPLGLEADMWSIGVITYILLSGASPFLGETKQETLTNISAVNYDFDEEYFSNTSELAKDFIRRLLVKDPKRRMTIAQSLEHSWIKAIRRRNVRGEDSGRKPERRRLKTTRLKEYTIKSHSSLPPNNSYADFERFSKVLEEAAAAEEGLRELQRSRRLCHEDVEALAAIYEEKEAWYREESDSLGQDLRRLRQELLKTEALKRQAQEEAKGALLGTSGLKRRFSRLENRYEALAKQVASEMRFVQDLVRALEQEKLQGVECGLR
Assay type: biochemical
In short: as §1

| Sequence | % activity [%] |
| --- | --- |
| FAKLAARLYRKALARQLGVAA [MMI-0300] | 28 |
| HRRIKAWLKKIKALARQLGVAA (Mammal) [MMI-0500] | 1 |
| KAFAKLAARLYRKALARQLGVAA [MMI-0400] | 13 |
| YARAAARQARAKALNRQLGVA (Mammal) [MMI-0200] | 67 |

What follows are sequences tested against AMPKα2(h) (Homo sapiens, UniProt P54646) (assay: Kinase Profiling Assay). Conditions: peptide 100 μM.
AMPKα2(h), sequence (P54646 whole entry): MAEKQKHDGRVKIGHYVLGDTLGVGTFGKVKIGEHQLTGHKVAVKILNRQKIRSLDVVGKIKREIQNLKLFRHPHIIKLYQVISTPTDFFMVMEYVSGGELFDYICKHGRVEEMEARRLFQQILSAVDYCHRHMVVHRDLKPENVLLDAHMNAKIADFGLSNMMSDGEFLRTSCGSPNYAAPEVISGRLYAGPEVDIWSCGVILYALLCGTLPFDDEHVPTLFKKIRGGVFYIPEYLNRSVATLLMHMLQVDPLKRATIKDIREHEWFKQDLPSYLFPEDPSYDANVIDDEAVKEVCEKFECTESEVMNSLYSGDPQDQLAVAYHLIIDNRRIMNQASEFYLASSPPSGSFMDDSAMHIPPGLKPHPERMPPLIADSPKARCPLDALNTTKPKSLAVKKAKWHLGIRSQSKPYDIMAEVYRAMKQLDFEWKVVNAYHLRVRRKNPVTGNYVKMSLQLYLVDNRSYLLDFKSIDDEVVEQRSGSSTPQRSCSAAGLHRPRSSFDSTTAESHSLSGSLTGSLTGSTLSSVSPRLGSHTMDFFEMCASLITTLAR
AMPKα2(h), sequence (Q9Y478 whole entry partner): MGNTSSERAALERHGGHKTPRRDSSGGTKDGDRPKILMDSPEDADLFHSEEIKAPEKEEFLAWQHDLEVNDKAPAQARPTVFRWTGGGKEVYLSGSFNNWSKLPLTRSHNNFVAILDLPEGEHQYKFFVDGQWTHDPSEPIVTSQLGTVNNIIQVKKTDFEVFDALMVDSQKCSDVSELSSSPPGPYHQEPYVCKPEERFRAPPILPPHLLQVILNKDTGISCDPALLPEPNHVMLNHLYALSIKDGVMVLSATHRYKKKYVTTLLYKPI
AMPKα2(h), sequence (P54619 whole entry partner): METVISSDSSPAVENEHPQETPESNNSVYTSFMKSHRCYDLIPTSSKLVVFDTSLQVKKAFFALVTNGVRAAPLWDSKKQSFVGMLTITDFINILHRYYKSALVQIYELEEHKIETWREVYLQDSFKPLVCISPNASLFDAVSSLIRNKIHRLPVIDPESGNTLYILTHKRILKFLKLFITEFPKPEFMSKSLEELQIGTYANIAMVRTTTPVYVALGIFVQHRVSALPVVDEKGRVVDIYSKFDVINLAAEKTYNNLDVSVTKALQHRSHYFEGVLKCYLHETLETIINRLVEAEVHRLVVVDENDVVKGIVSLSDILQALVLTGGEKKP
Assay type: biochemical
In short: as §1

| Sequence | % activity [%] |
| --- | --- |
| FAKLAARLYRKALARQLGVAA [MMI-0300] | 54 |
| HRRIKAWLKKIKALARQLGVAA (Mammal) [MMI-0500] | 9 |
| KAFAKLAARLYRKALARQLGVAA [MMI-0400] | 58 |
| YARAAARQARAKALNRQLGVA (Mammal) [MMI-0200] | 88 |

These sequences were tested against T3, TSSK2(h) (Homo sapiens, UniProt Q96PF2) (assay: Kinase Profiling Assay). Conditions: peptide 100 μM.
T3 sequence (Q96PF2 1-358): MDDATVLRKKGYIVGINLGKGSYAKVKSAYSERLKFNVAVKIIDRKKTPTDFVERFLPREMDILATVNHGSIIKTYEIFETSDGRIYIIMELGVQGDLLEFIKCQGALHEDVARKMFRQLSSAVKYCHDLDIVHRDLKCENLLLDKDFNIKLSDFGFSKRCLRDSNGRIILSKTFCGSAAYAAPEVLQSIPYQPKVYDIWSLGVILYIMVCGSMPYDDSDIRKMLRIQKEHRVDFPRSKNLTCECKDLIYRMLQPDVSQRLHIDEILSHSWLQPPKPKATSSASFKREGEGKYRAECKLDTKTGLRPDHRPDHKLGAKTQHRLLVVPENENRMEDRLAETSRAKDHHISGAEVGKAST
Assay type: biochemical
In short: as §1

| Sequence | % activity [%] |
| --- | --- |
| FAKLAARLYRKALARQLGVAA [MMI-0300] | 98 |
| HRRIKAWLKKIKALARQLGVAA (Mammal) [MMI-0500] | 92 |
| KAFAKLAARLYRKALARQLGVAA [MMI-0400] | 94 |
| YARAAARQARAKALNRQLGVA (Mammal) [MMI-0200] | 91 |

What follows are sequences tested against CDK9/cyclin T1(h) (Homo sapiens, UniProt P50750) (assay: Kinase Profiling Assay). Conditions: peptide 100 μM.
CDK9/cyclin T1(h), sequence (P50750 whole entry): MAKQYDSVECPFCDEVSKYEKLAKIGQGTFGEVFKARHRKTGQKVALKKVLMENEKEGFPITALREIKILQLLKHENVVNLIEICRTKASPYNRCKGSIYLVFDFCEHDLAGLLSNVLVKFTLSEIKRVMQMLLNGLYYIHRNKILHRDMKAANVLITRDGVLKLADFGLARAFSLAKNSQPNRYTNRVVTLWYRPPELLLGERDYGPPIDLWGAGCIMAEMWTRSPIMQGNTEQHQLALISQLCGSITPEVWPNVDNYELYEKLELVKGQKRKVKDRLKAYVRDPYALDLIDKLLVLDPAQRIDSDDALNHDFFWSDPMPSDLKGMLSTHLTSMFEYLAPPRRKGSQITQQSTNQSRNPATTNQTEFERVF
CDK9/cyclin T1(h), sequence (O60563 whole entry partner): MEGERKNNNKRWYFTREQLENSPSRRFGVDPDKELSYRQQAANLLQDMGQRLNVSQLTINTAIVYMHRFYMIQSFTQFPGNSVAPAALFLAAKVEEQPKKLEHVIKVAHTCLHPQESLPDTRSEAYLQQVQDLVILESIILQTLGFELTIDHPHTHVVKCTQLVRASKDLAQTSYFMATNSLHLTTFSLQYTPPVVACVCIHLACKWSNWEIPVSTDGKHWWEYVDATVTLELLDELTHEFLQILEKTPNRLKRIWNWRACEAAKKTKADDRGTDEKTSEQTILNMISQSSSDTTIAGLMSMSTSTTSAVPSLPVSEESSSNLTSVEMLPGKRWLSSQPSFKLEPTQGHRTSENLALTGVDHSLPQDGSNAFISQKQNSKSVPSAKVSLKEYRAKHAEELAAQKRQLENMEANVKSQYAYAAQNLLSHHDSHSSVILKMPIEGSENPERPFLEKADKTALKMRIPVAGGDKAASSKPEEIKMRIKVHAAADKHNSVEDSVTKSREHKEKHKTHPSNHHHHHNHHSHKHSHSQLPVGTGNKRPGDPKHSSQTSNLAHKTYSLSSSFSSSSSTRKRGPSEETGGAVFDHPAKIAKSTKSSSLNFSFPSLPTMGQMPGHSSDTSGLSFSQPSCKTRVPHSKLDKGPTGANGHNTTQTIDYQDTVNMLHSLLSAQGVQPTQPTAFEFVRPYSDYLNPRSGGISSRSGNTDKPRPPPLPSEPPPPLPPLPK
Assay type: biochemical
In short: as §1

| Sequence | % activity [%] |
| --- | --- |
| FAKLAARLYRKALARQLGVAA [MMI-0300] | 91 |
| HRRIKAWLKKIKALARQLGVAA (Mammal) [MMI-0500] | 6 |
| KAFAKLAARLYRKALARQLGVAA [MMI-0400] | 235 |

These sequences were tested against Fms(h) (Homo sapiens, UniProt P07333) (assay: Kinase Profiling Assay). Conditions: peptide 100 μM.
Assay type: biochemical
In short: as §1

| Sequence | % activity [%] |
| --- | --- |
| FAKLAARLYRKALARQLGVAA [MMI-0300] | 45 |
| HRRIKAWLKKIKALARQLGVAA (Mammal) [MMI-0500] | 14 |
| KAFAKLAARLYRKALARQLGVAA [MMI-0400] | 37 |
| YARAAARQARAKALARQLGVAA [MMI-0100] | 89 |
| YARAAARQARAKALNRQLGVA (Mammal) [MMI-0200] | 92 |

The sequences below were run against T4, IRAK1(h) (Homo sapiens, UniProt P51617) (assay: Kinase Profiling Assay). Conditions: peptide 100 μM.
T4 construct: purchased Millipore
T4 sequence (P51617 whole entry): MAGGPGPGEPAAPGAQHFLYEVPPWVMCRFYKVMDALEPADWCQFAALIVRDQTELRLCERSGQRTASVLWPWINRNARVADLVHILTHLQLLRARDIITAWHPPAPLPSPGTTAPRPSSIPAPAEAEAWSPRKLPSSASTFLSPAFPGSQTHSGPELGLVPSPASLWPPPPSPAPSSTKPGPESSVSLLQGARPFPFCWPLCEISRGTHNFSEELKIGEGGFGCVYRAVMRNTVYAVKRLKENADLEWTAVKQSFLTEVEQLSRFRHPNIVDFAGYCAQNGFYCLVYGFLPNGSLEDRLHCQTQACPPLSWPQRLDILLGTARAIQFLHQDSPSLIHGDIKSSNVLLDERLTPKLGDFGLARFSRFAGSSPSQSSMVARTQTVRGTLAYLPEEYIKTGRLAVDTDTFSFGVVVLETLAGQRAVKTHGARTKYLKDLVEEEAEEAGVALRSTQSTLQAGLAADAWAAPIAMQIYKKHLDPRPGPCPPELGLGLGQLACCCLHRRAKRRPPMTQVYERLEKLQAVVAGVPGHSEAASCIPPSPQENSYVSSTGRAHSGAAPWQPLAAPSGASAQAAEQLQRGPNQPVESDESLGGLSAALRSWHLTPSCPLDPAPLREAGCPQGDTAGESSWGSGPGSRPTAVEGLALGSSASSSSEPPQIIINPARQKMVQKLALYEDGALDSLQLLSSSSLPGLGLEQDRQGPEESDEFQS
Assay type: biochemical
In short: as §1

| Sequence | % activity [%] |
| --- | --- |
| FAKLAARLYRKALARQLGVAA [MMI-0300] | 95 |
| HRRIKAWLKKIKALARQLGVAA (Mammal) [MMI-0500] | 5 |
| KAFAKLAARLYRKALARQLGVAA [MMI-0400] | 93 |
| YARAAARQARAKALNRQLGVA (Mammal) [MMI-0200] | 101 |

These sequences were tested against T5, PKG1α(h) (Homo sapiens, UniProt Q13976) (assay: Kinase Profiling Assay). Conditions: peptide 100 μM.
T5 sequence (Q13976 1-671): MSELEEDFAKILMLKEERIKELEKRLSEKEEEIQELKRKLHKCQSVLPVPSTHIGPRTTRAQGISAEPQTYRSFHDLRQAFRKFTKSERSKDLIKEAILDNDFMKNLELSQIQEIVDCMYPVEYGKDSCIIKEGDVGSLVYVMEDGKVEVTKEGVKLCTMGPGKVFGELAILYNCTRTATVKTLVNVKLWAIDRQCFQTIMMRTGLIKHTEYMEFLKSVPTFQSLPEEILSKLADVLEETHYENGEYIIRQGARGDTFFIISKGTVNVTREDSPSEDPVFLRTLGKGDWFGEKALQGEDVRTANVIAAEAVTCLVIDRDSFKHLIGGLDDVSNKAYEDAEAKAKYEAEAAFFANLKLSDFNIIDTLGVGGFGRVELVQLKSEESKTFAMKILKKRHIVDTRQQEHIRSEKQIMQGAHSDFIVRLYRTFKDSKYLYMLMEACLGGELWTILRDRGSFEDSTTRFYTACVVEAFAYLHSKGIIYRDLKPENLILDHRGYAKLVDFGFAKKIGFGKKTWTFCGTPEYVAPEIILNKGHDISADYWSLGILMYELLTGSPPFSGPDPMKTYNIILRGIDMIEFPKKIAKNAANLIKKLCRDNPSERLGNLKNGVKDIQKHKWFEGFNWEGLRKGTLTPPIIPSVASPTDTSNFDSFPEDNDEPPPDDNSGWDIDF
Assay type: biochemical
In short: as §1

| Sequence | % activity [%] |
| --- | --- |
| FAKLAARLYRKALARQLGVAA [MMI-0300] | 64 |
| HRRIKAWLKKIKALARQLGVAA (Mammal) [MMI-0500] | 25 |
| KAFAKLAARLYRKALARQLGVAA [MMI-0400] | 58 |
| YARAAARQARAKALARQLGVAA [MMI-0100] | 82 |
| YARAAARQARAKALNRQLGVA (Mammal) [MMI-0200] | 70 |
